From the supplement of paper PMC9112550, “Optimization of the antimicrobial peptide Bac7 by deep mutational scanning” (BMC Biology, 2022)

System: Escherichia coli TOP10
Assay: shrunken log2 fold change of peptide-encoding DNA abundance (4.5 h post-induction vs induction); higher = less antimicrobial activity (less host growth inhibition)
Conditions: time post-induction: 4.5 h; library: site-saturation at positions 5, 18, 19, 20
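Further: peptides expressed intracellularly from a pBAD plasmid library in pooled LB shake-flask culture, induced with 0.3% L-arabinose, DNA abundance read by NGS, three biological replicates, DESeq2 with apeglm shrinkage.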

How did the “shrunken log2 fold change” value turn out when RRIRPRPPRLPRPRPRPPFKPRP was run?
The value was 0.0437.

For RRIRPRPPRLPRPRPRPPFLPRP, which “shrunken log2 fold change” value is on record?
Its value is 0.188.

RRIRPRPPRLPRPRPRPPIIPRP was tested. Which “shrunken log2 fold change” value did it give?
The value was -0.231.

RRIRPRPPRLPRPRPRPPITPRP was tested. Which “shrunken log2 fold change” value did it give?
Its value is -0.0969.

With RRIRPRPPRLPRPRPRPPIWPRP as the sequence, how does the “shrunken log2 fold change” value read?
The value was 0.268.

With RRIRPRPPRLPRPRPRPPKHPRP as the sequence, how does the “shrunken log2 fold change” value read?
The value was 0.499.

With RRIRPRPPRLPRPRPRPPLIPRP as the sequence, how does the “shrunken log2 fold change” value read?
Its value is -0.338.

RRIRPRPPRLPRPRPRPPLPPRP was tested. Which “shrunken log2 fold change” value did it give?
Its value is 0.814.

For RRIRPRPPRLPRPRPRPPLVPRP, which “shrunken log2 fold change” value is on record?
Its value is 0.389.

RRIRPRPPRLPRPRPRPPMFPRP was tested. Which “shrunken log2 fold change” value did it give?
Its value is 0.0198.

With RRIRPRPPRLPRPRPRPPMLPRP as the sequence, how does the “shrunken log2 fold change” value read?
Its value is 0.18.

Which “shrunken log2 fold change” value does the source give for RRIRPRPPRLPRPRPRPPMVPRP here?
The value was 0.0188.

RRIRPRPPRLPRPRPRPPNYPRP was tested. Which “shrunken log2 fold change” value did it give?
The value was -0.0609.

For RRIRPRPPRLPRPRPRPPQCPRP, which “shrunken log2 fold change” value is on record?
The value was 0.228.

With RRIRPRPPRLPRPRPRPPQQPRP as the sequence, how does the “shrunken log2 fold change” value read?
The value was 0.345.

How did the “shrunken log2 fold change” value turn out when RRIRPRPPRLPRPRPRPPQWPRP was run?
Its value is 0.403.

For RRIRPRPPRLPRPRPRPPSEPRP, which “shrunken log2 fold change” value is on record?
Its value is 0.447.

RRIRPRPPRLPRPRPRPPTLPRP was tested. Which “shrunken log2 fold change” value did it give?
The value was 0.129.

Which “shrunken log2 fold change” value does the source give for RRIRPRPPRLPRPRPRPPTTPRP here?
The value was 0.327.

RRIRPRPPRLPRPRPRPPVAPRP was tested. Which “shrunken log2 fold change” value did it give?
The value was 0.366.

Which “shrunken log2 fold change” value does the source give for RRIRPRPPRLPRPRPRPPWHPRP here?
Its value is 0.196.

Which “shrunken log2 fold change” value does the source give for RRIRPRPPRLPRPRPRPPWPPRP here?
The value was 0.688.

Which “shrunken log2 fold change” value does the source give for RRIRPRPPRLPRPRPRPPWRPRP here?
The value was 0.558.

RRIRPRPPRLPRPRPRPPYFPRP was tested. Which “shrunken log2 fold change” value did it give?
Its value is 0.0747.

Which “shrunken log2 fold change” value does the source give for RRIRPRPPRLPRPRPRPQAYPRP here?
The value was -0.215.

For RRIRPRPPRLPRPRPRPQCPPRP, which “shrunken log2 fold change” value is on record?
The value was -0.172.

For RRIRPRPPRLPRPRPRPQDQPRP, which “shrunken log2 fold change” value is on record?
The value was -0.126.

For RRIRPRPPRLPRPRPRPQFCPRP, which “shrunken log2 fold change” value is on record?
Its value is -0.153.

For RRIRPRPPRLPRPRPRPQFHPRP, which “shrunken log2 fold change” value is on record?
The value was -0.3.

With RRIRPRPPRLPRPRPRPQFQPRP as the sequence, how does the “shrunken log2 fold change” value read?
Its value is -0.192.

RRIRPRPPRLPRPRPRPQGIPRP was tested. Which “shrunken log2 fold change” value did it give?
The value was 0.102.

RRIRPRPPRLPRPRPRPQHDPRP was tested. Which “shrunken log2 fold change” value did it give?
Its value is -0.176.

With RRIRPRPPRLPRPRPRPQHKPRP as the sequence, how does the “shrunken log2 fold change” value read?
Its value is -0.449.

Which “shrunken log2 fold change” value does the source give for RRIRPRPPRLPRPRPRPQKGPRP here?
Its value is -0.0684.

How did the “shrunken log2 fold change” value turn out when RRIRPRPPRLPRPRPRPQLFPRP was run?
The value was 0.0893.

RRIRPRPPRLPRPRPRPQPHPRP was tested. Which “shrunken log2 fold change” value did it give?
Its value is 0.138.

Which “shrunken log2 fold change” value does the source give for RRIRPRPPRLPRPRPRPQPVPRP here?
Its value is 0.212.

How did the “shrunken log2 fold change” value turn out when RRIRPRPPRLPRPRPRPQRTPRP was run?
The value was 0.113.

With RRIRPRPPRLPRPRPRPQSEPRP as the sequence, how does the “shrunken log2 fold change” value read?
Its value is -0.381.

Which “shrunken log2 fold change” value does the source give for RRIRPRPPRLPRPRPRPQSTPRP here?
Its value is -0.136.

With RRIRPRPPRLPRPRPRPQTQPRP as the sequence, how does the “shrunken log2 fold change” value read?
The value was 0.115.

How did the “shrunken log2 fold change” value turn out when RRIRPRPPRLPRPRPRPQTVPRP was run?
Its value is 0.184.

With RRIRPRPPRLPRPRPRPQWCPRP as the sequence, how does the “shrunken log2 fold change” value read?
Its value is -0.0525.

With RRIRPRPPRLPRPRPRPQYIPRP as the sequence, how does the “shrunken log2 fold change” value read?
The value was -0.457.

Which “shrunken log2 fold change” value does the source give for RRIRPRPPRLPRPRPRPQYKPRP here?
Its value is -0.129.

With RRIRPRPPRLPRPRPRPQYPPRP as the sequence, how does the “shrunken log2 fold change” value read?
Its value is -0.133.

For RRIRPRPPRLPRPRPRPRAYPRP, which “shrunken log2 fold change” value is on record?
The value was -0.13.

Which “shrunken log2 fold change” value does the source give for RRIRPRPPRLPRPRPRPRCAPRP here?
The value was 1.73.

Which “shrunken log2 fold change” value does the source give for RRIRPRPPRLPRPRPRPRCKPRP here?
The value was 0.215.

How did the “shrunken log2 fold change” value turn out when RRIRPRPPRLPRPRPRPREVPRP was run?
The value was 0.419.

RRIRPRPPRLPRPRPRPRFFPRP was tested. Which “shrunken log2 fold change” value did it give?
Its value is 0.211.

Which “shrunken log2 fold change” value does the source give for RRIRPRPPRLPRPRPRPRGKPRP here?
Its value is -0.0806.

For RRIRPRPPRLPRPRPRPRGPPRP, which “shrunken log2 fold change” value is on record?
Its value is 0.545.

How did the “shrunken log2 fold change” value turn out when RRIRPRPPRLPRPRPRPRGWPRP was run?
The value was 1.12.

For RRIRPRPPRLPRPRPRPRHGPRP, which “shrunken log2 fold change” value is on record?
The value was 0.0491.

How did the “shrunken log2 fold change” value turn out when RRIRPRPPRLPRPRPRPRHLPRP was run?
The value was -0.0836.

RRIRPRPPRLPRPRPRPRHTPRP was tested. Which “shrunken log2 fold change” value did it give?
Its value is 0.136.

RRIRPRPPRLPRPRPRPRIAPRP was tested. Which “shrunken log2 fold change” value did it give?
The value was 0.451.

How did the “shrunken log2 fold change” value turn out when RRIRPRPPRLPRPRPRPRISPRP was run?
The value was -0.145.

For RRIRPRPPRLPRPRPRPRITPRP, which “shrunken log2 fold change” value is on record?
Its value is 0.0754.

How did the “shrunken log2 fold change” value turn out when RRIRPRPPRLPRPRPRPRIWPRP was run?
Its value is 0.362.

Which “shrunken log2 fold change” value does the source give for RRIRPRPPRLPRPRPRPRKMPRP here?
Its value is 0.0337.

Which “shrunken log2 fold change” value does the source give for RRIRPRPPRLPRPRPRPRLEPRP here?
Its value is 0.197.

How did the “shrunken log2 fold change” value turn out when RRIRPRPPRLPRPRPRPRLLPRP was run?
Its value is 0.321.

RRIRPRPPRLPRPRPRPRLTPRP was tested. Which “shrunken log2 fold change” value did it give?
Its value is 0.293.

With RRIRPRPPRLPRPRPRPRLWPRP as the sequence, how does the “shrunken log2 fold change” value read?
The value was 0.917.

How did the “shrunken log2 fold change” value turn out when RRIRPRPPRLPRPRPRPRMFPRP was run?
The value was 0.0598.

For RRIRPRPPRLPRPRPRPRNLPRP, which “shrunken log2 fold change” value is on record?
The value was 0.067.

For RRIRPRPPRLPRPRPRPRPEPRP, which “shrunken log2 fold change” value is on record?
The value was 0.373.

For RRIRPRPPRLPRPRPRPRPRPRP, which “shrunken log2 fold change” value is on record?
Its value is 0.744.

With RRIRPRPPRLPRPRPRPRQIPRP as the sequence, how does the “shrunken log2 fold change” value read?
Its value is -0.0965.

With RRIRPRPPRLPRPRPRPRQKPRP as the sequence, how does the “shrunken log2 fold change” value read?
Its value is 0.0891.

For RRIRPRPPRLPRPRPRPRRLPRP, which “shrunken log2 fold change” value is on record?
Its value is 0.279.

With RRIRPRPPRLPRPRPRPRSWPRP as the sequence, how does the “shrunken log2 fold change” value read?
The value was 0.533.

RRIRPRPPRLPRPRPRPRVDPRP was tested. Which “shrunken log2 fold change” value did it give?
The value was 0.263.
